According to publication PMC3365582:

Target: PaiB transcriptional regulator from Geobacillus stearothermophilus (Geobacillus stearothermophilus)
Assay: crystal structure

“PaiB transcriptional regulator from Geobacillus stearothermophilus (natural protein)” was tested. Which stoichiometry N did it give?
Its stoichiometry N is 2.
